B1: library; numbered along this chain (parent)
chain: MRKPRAAVGSGHRKQAASQEGRQKHAKNNSQAKPSACDGLARQPEEVVLQASVSSYHLFRDVAEVTAFRGSLLSWYDQEKRDLPWRRRAEDEMDLDRRAYAVWVSEVMLQQTQVATVINYYTGWMQKWPTLQDLASASLEEVNQLWAGLGYYSRGRRLQEGARKVVEELGGHMPRTAETLQQLLPGVGRYTAGAIASIAFGQATGVVDGNVARVLCRVRAIGADPSSTLVSQQLWGLAQQLVDPARPGDFNQAAMELGATVCTPQRPLCSQCPVESLCRARQRVEQEQLLASGSLSGSPDVEECAPNTGQCHLCLPPSEPWDQTLGVVNFPRKASRKPPREESSATCVLEQPGALGAQILLVQRPNSGLLAGLWEFPSVTWEPSEQLQRKALLQELQRWAGPLPATHLRHLGEVVHTFSHIKLTYQVYGLALEGQTPVTTVPPGARWLTQEEFHTAAVSTAMKKVFRVYQGQQPGTCMGSKRSQVSSPCSRKKPRMGQQVLDNFFRSHISTDAHSLNSAAQ

Variants of: B1
Test: 8OG:A repair function score (normalized; synonymous = 0, nonsense = -1) (normalized log-likelihood score); higher = more repair activity (WT-like)
Conditions: with 8OG:A DNA repair reporter (GFP) in HEK-293 MUTYH KO cells
How it was run: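 Lentiviral MUTYH cDNA NNN codon-scan libraries in HEK-293 MUTYH knockout cells (10 pg/ml doxycycline) were co-transfected with an 8OG:A GFP repair reporter plus mCherry. At 72 h, viable mCherry+ cells were sorted into GFP+ (repair) and GFP− bins, three replicates per tile, then tile amplicons were sequenced. Per-tile Rosace fitness scores became a normalized repair function score anchored on synonymous and nonsense distributions. Synonymous medians were set to 0 and nonsense to -1; variants under 300 counts per million at the start were removed.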

Variant	8OG:A repair function score
S487H	0.00963
S487E	0.00844
S487P	-0.0175
A520W	-0.0228
V261T	-0.0821
V261F	-0.278
V261K	-0.147
I198K	-1.06
I198Q	-0.466
I198M	-0.189
I198D	-1.1
A196C	-0.233
K127Y	-0.398
L145V	-0.0541
L145Q	0.154
L145W	-0.0219
S318P	-0.26
P299G	-0.0369
E303F	-0.112
E303C	-0.0302
A223D	-0.631
A400N	-0.913
K493N	0.0279
K493A	0.0129

Variant	8OG:A repair function score
Y190Q	-0.567
N251M	-0.915
N251T	-0.798
Q50T	-0.147
K492W	0.0127
T130V	-0.178
T130D	0.137
E319F	-0.211
L158N	-1.2
L158P	-0.951
G155E	-0.691
E168S	-0.0595
V284C	-0.0207
L277I	-0.036
R163L	-0.128
R163P	-0.887
R86W	-1.23
Y428A	-1.05
N366K	-0.0179
P338E	-0.133
G148P	-1.1
G148E	-0.792
A245Q	0.0913
A513E	-0.0288

Variant	8OG:A repair function score
E167P	-0.768
D61Y	-0.0853
S231I	-0.0202
E79N	-0.0384
G209W	-0.876
L73R	-0.593
D224Q	-0.87
H508I	-0.0148
L516R	-0.0194
L516G	0.00843
P34W	0.133
R389T	0.1
Q473R	0.00304
E302Q	-0.207
H407G	-0.0586
R69M	-3.11
S52D	-0.0111
S52F	-0.0245
S52Q	-0.0208
W235D	-0.452
D512P	-0.0253
Y56R	-0.0483
S136M	0.116
S136K	0.0771

Variant	8OG:A repair function score
A220W	-0.836
A220T	-0.62
R340A	-0.0533
F200N	-0.427
F200W	-0.182
C477R	0.000623
S71G	-0.000985
S71R	-0.0148
G236I	0.00703
V468S	-0.18
L58S	-0.0155
Q288C	-0.0156
T346H	-0.35
V65G	-0.206
F330W	-0.017
F330S	-0.765
P317A	-0.0112
P317R	0.0296
Q240G	-1
C269D	-0.992
V485S	0.0216
H454E	-0.068
N143A	-0.35
Q43Y	-0.0469

Variant	8OG:A repair function score
Y76R	-1.37
Y76I	-1.28
S419P	-0.574
S419A	-0.188
S419M	-0.561
C311Q	-0.575
C311P	-0.312
P339H	0.0544
R398K	-0.0169
R398M	0.0969
L355G	0.0028
W128C	-0.476
W128L	-0.0988
T476V	-0.0294
R219T	-0.638
R219Y	-0.556
L180C	-0.258
L180E	-0.764
E160D	-0.104
E160H	-0.264
G479E	0.0225
G401M	-0.302
K80Y	-0.271
K80C	-0.0206

Variant	8OG:A repair function score
P84V	-0.206
Q426P	-0.928
Q282R	-0.0175
R495F	-0.0118
A89D	-0.0385
A89E	-0.00662
P185E	-0.168
P185G	-0.141
V53K	-0.0093
V53C	0.000965
R364T	-0.411
S270Y	-0.036
L257E	-1.08
T66Q	0.00332
R42I	-0.00552
A199E	-1.06
R217F	-1.04
R217N	-1.04
L315K	-0.116
L315Y	0.0406
H312G	-0.0894
T204M	-0.111
P443H	0.055
P443M	0.0448

Variant	8OG:A repair function score
P443A	0.0799
A345S	-0.148
G193D	-0.37
V104H	-1.31
H172E	0.017
E178N	0.0803
E178F	-0.0911
E178H	-0.0501
L72T	-0.206
G123R	0.0952
R157D	-0.365
R157W	-0.0111
R157V	-0.362
M462W	-0.592
V414N	-0.679
V211W	-0.594
V166M	-0.0629
G309R	-0.0133
G309A	-0.0354
G309I	-0.145
V48N	0.0431
S105R	-0.765
L290I	0.0122
N210S	-1.03

Variant	8OG:A repair function score
Q351K	0.044
Q351L	-0.0629
R81L	-0.31
T191A	-0.325
D322E	0.0971
D322K	0.00699
R2D	-0.112
Q232A	-0.179
L370W	-0.364
L370E	-1.06
M93Q	0.00486
S510D	-0.0311
L109Y	-1.24
A115K	-0.0104
A115F	-0.146
L40K	0.127
S367W	0.00054
T439C	-0.19
T439M	0.106
T439E	0.0225
K481W	-0.0431
D82Q	-0.0442
S344Y	0.0271
Q286M	-0.0133

Variant	8OG:A repair function score
L325K	-0.0528
M496C	-0.00499
E382I	-0.0196
R213D	-1.01
S518K	-0.0195
G39F	0.045
L139M	-0.053
A254W	-0.393
A254F	0.057
L430R	-0.655
L430V	-0.165
V114F	-0.42
L411K	-0.505
G248A	-0.729
G248Q	-0.882
A259W	-0.859
K422Q	0.195
L393D	-0.369
W146G	-0.399
D94C	-0.112
D94H	-0.136
D94V	-0.128
V142H	-0.882
L423K	-0.269

Variant	8OG:A repair function score
G475P	-0.00826
A461I	-0.152
A461L	-0.0454
A461K	-0.813
L183I	-0.112
L183M	-0.13
S343L	-0.124
S138Y	-0.0612
S138W	-0.724
A99L	-0.788
P316M	-0.238
P488N	0.00623
I509D	-0.00523
T511Y	0.0102
T511I	-0.0251
G497E	0.00606
P247F	-1.01
P247I	-0.969
G297A	-0.00898
G171R	-0.577
P129S	-0.231
F504C	-0.00333
R88T	0.00666
H416G	-0.0614

Variant	8OG:A repair function score
A456I	-0.12
A405V	-0.00982
Q239K	-0.0216
Y151C	-0.944
L432P	-0.514
P404Y	-0.119
A357M	-0.0956
A357I	-0.0394
A445C	0.0578
A177L	-0.213
C314N	-0.553
A194L	-0.733
A371H	-0.324
D249H	-0.28
R189I	-0.335
H514E	-0.0112
Q202E	-0.0729
Q202Y	-0.329
K464H	-0.313
A203E	-0.0816
A203M	-0.0505
Q499S	0.00646
T260V	-0.0429
T424K	-0.203

Variant	8OG:A repair function score
E106I	-1.13
G368T	-0.332
E341A	0.0808
S292M	-0.0481
L149S	-0.335
A457W	-0.671
F466C	-0.319
T380S	0.139
C304T	-0.454
D208K	-0.994
T176F	-0.157
H410K	-0.0723
H410M	0.0995
G326S	-0.307
G326N	-0.0169
G326C	-0.508
T460W	-0.305
P225T	-0.0501
A162G	-0.456
A162I	-0.523
Y120S	-0.126
A253C	-0.853
D96F	-0.446
P44V	-0.0774

Variant	8OG:A repair function score
P44E	-0.0552
P44K	0.00377
P402L	-0.318
I195S	-0.944
R175E	0.0279
G170M	-0.0605
G353P	-0.17
G353K	-0.127
T179G	0.108
T179I	-0.04
W321F	-0.00541
P437V	-0.0519
L313G	-0.386
L313N	-0.337
E342Q	0.0267
E342W	-0.279
E342M	0.0246
V441H	-0.533
Q363W	-0.451
A101S	0.00626
T324M	0.0106
M255A	-0.993
R97T	-0.00706
R97C	0.00684

Variant	8OG:A repair function score
A280T	-0.13
A280L	-0.262
E385T	-0.24
E385S	-0.167
E433H	-0.0353
V47Y	-0.0242
S515C	-0.0274
S515I	-0.0207
T112W	-1.35
T112Y	-1.19
R506A	-0.0637
A431D	-0.204
Q144F	-0.198
A36R	-0.15
F505I	0.0133
G372C	-0.263
G372D	-0.324
N503H	-0.0815
N503E	0.0211
R467S	-0.0606
R467N	-0.0631
R467M	-0.057
